Laboratory results reported in patent US20230002480A1.

Legend:
Experiment in all cases: cell-based or functional assay
[1] = target: HIV-1 Env of pseudovirus 1012_11_TC21_3257 (HIV-1)
[2] = target: HIV-1 Env of pseudovirus 211-9 (HIV-1)
[3] = target: HIV-1 Env of pseudovirus 231965.c01 (HIV-1)
[4] = target: HIV-1 Env of pseudovirus 3016.v5.c45 (HIV-1)
[5] = target: HIV-1 Env of pseudovirus 3365.v2.c2 (HIV-1)
[6] = target: HIV-1 Env of pseudovirus 6041.v3.c23 (HIV-1)
[7] = target: HIV-1 Env of pseudovirus 6240_08_TA5_4622 (HIV-1)
[8] = target: HIV-1 Env of pseudovirus 6480.v4.c25 (HIV-1)
[9] = target: HIV-1 Env of pseudovirus AC10.0.29 (HIV-1)
[10] = target: HIV-1 Env of pseudovirus C2101.c01 (HIV-1)
[11] = target: HIV-1 Env of pseudovirus Ce1172_H1 (HIV-1)
[12] = target: HIV-1 Env of pseudovirus Ce1176_A3 (HIV-1)
[13] = target: HIV-1 Env of pseudovirus Ce2010_F5 (HIV-1)
[14] = target: HIV-1 Env of pseudovirus Du156.12 (HIV-1)
[15] = target: HIV-1 Env of pseudovirus HIV-0013095-2.11 (HIV-1)
[16] = target: HIV-1 Env of pseudovirus HIV-16845-2.22 (HIV-1)
[17] = target: HIV-1 Env of pseudovirus P1981_C5_3 (HIV-1)
[18] = target: HIV-1 Env of pseudovirus Q461.e2 (HIV-1)
[19] = target: HIV-1 Env of pseudovirus SC422661.8 (HIV-1)
[20] = target: HIV-1 Env of pseudovirus T250-4 (HIV-1)
[21] = target: HIV-1 Env of pseudovirus T255-34 (HIV-1)
[22] = target: HIV-1 Env of pseudovirus THRO4156.18 (HIV-1)
[23] = target: HIV-1 Env of pseudovirus TRO.11 (HIV-1)
[24] = target: HIV-1 Env of pseudovirus WEAU_d15_410_787 (HIV-1)
[25] = target: HIV-1 Env of pseudovirus X2088_c9 (HIV-1)
[26] = target: HIV-1 Env of pseudovirus ZM109F.PB4 (HIV-1)
[27] = target: HIV-1 Env of pseudovirus ZM247v1(Rev-) (HIV-1)

VRC01 (antibody) was tested, and the IC50, titer in TZM.bl cells [1] was 0.12 µg/mL, the IC80, titer in TZM.bl cells [1] was 0.32 µg/mL and the IC50, titer in TZM.bl cells [2] was 14.3 µg/mL. For the same substance, the IC80, titer in TZM.bl cells [2] was over 50 µg/mL, the IC50, titer in TZM.bl cells [3] was 0.34 µg/mL and the IC80, titer in TZM.bl cells [3] was 1.2 µg/mL. It also gave an IC50, titer in TZM.bl cells [4] of 0.16 µg/mL, an IC80, titer in TZM.bl cells [4] of 0.42 µg/mL and an IC50, titer in TZM.bl cells [5] of 0.06 µg/mL. The IC80, titer in TZM.bl cells [5] was 0.17 µg/mL, the IC50, titer in TZM.bl cells [6] was 0.02 µg/mL and the IC80, titer in TZM.bl cells [6] was 0.08 µg/mL. The IC50, titer in TZM.bl cells [7] was 0.61 µg/mL, the IC80, titer in TZM.bl cells [7] was 1.82 µg/mL and the IC50, titer in TZM.bl cells [8] was 0.04 µg/mL. It also gave an IC80, titer in TZM.bl cells [8] of 0.09 µg/mL, an IC50, titer in TZM.bl cells [9] of 2.2 µg/mL and an IC80, titer in TZM.bl cells [9] of 6.5 µg/mL. It also gave an IC50, titer in TZM.bl cells [10] of 0.36 µg/mL, an IC80, titer in TZM.bl cells [10] of 1.17 µg/mL and an IC50, titer in TZM.bl cells [11] of over 10 µg/mL. The IC80, titer in TZM.bl cells [11] was over 10 µg/mL, the IC50, titer in TZM.bl cells [12] was 2.25 µg/mL and the IC80, titer in TZM.bl cells [12] was 8.1 µg/mL. For the same substance, the IC50, titer in TZM.bl cells [13] was 0.32 µg/mL, the IC80, titer in TZM.bl cells [13] was 1.07 µg/mL and the IC50, titer in TZM.bl cells [14] was 0.09 µg/mL. The IC80, titer in TZM.bl cells [14] was 0.193 µg/mL, the IC50, titer in TZM.bl cells [15] was 0.11 µg/mL and the IC80, titer in TZM.bl cells [15] was 0.33 µg/mL. It also gave an IC50, titer in TZM.bl cells [16] of 2.8 µg/mL, an IC80, titer in TZM.bl cells [16] of 12.7 µg/mL and an IC50, titer in TZM.bl cells [17] of 0.46 µg/mL. The IC80, titer in TZM.bl cells [17] was 1.26 µg/mL, the IC50, titer in TZM.bl cells [18] was 0.49 µg/mL and the IC80, titer in TZM.bl cells [18] was 1.6 µg/mL. The IC50, titer in TZM.bl cells [19] was 0.08 µg/mL, the IC80, titer in TZM.bl cells [19] was 0.265 µg/mL and the IC50, titer in TZM.bl cells [20] was over 50 µg/mL. The IC80, titer in TZM.bl cells [20] was over 50 µg/mL, the IC50, titer in TZM.bl cells [21] was 0.7 µg/mL and the IC80, titer in TZM.bl cells [21] was 2.7 µg/mL. The IC80, titer in TZM.bl cells [22] was 23 µg/mL, the IC50, titer in TZM.bl cells [23] was 0.21 µg/mL and the IC80, titer in TZM.bl cells [23] was 0.83 µg/mL. It also gave an IC50, titer in TZM.bl cells [24] of 0.12 µg/mL, an IC80, titer in TZM.bl cells [24] of 0.26 µg/mL and an IC50, titer in TZM.bl cells [25] of over 50 µg/mL. For the same substance, the IC80, titer in TZM.bl cells [25] was over 50 µg/mL, the IC50, titer in TZM.bl cells [26] was 0.13 µg/mL and the IC80, titer in TZM.bl cells [26] was 0.75 µg/mL. It also gave an IC50, titer in TZM.bl cells [27] of 0.35 µg/mL and an IC80, titer in TZM.bl cells [27] of 1.29 µg/mL.
